In assay [1] the target is Met (Homo sapiens, UniProt P08581). The following applies: reported; cited from earlier work.
Assay [2] has as its target T1, Recombinant Human Erythropoietin R Fc Chimera Protein, CF (R&D systems, 963-ER-50) (human, UniProt P19235 25-250).
T1 construct: Bought reagent; also called EPO receptor immobilized on magnetic beads; Fc part of the bought chimera not given
T1 sequence (looked up): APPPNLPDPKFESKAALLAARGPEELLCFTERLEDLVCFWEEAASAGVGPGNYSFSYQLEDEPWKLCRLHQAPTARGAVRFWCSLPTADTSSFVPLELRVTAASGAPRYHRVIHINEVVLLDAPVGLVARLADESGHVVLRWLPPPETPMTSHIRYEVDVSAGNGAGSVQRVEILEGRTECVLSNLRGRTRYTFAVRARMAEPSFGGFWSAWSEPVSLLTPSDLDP
The experiment in a line: ribosome display selection on Erythropoietin R Fc chimera on magnetic beads, from a 1:50:50 DNA mix; DNA length analysis of the recovered cDNA.

Assay [3] deals with HGF-Erk-SRE pathway. In words: SRE luciferase reporter assay of aMD4dY-leucine zipper fusion dimers (Example 2). The following applies: HEK293E cells with SRE reporter; cell-free expression reaction solution at 25- to 625-fold dilution; overnight stimulation; HGF 0 to 100 ng/mL as comparator; FIGS. 8-13. It is filed as cell-based. How it is done: (§1) The dimer of each aMD4dY-leucine zipper fusion was evaluated by luciferase assay. To 25 μL of Opti-MEM medium (Thermo Fisher Scientific), 0.6 μL of Attractene Transfection Reagent (QIAGEN) was added and incubated at room temperature for 5 minutes. To the above mixed solution, a mixed solution of 25 μL of Opti-MEM and 1 μL of SRE reporter vector (QIAGEN) was added and incubated at room temperature for 20 minutes. This mixed solution was added to a 96-well plate, HEK293E cells were seeded thereon at 40,000 cells/well, and incubated overnight at 37° C. in a 5% CO2 incubator. After transfection, all the culture supernatant was removed, and 100 μL of Opti-MEM medium (evaluation basal medium), containing 0.5% FBS (Thermo Fisher Scientific), 1% non-essential amino acid solution (Thermo Fisher Scientific), and penicillin-streptomycin (Nacalai Tesque), was added thereto, which was cultured at 37° C. for 4 hours to starve the cells.
To the evaluation basal medium, 0 to 100 ng/mL HGF was added, or the cell-free expression reaction solution was added at a 25- to 625-fold dilution with respect to the medium, and 100 μL of the evaluation basal medium was added to the cells. The cells were stimulated by culturing overnight at 37° C. in a 5% CO2 incubator.
Dual-Luciferase Reporter Assay System (Promega) was used for signal intensity detection. The medium supernatant in an amount of 100 μL was removed, 50 μL of Glo reagent was added, and cells were lysed at room temperature for 10 minutes. Activation of the HGF-Erk-SRE pathway was quantified by detecting Firefly luciferase luminescence from cell lysates with a plate reader. Subsequently, 50 μL of Glo & Stop reagent solution was added, and after 10 minutes, luminescence of Renilla luciferase, an internal standard, was detected to quantify the cell count. The signal activity of each sample was quantified as SRE activity=(luminescence intensity of Firefly luciferase)/(luminescence intensity of Renilla luciferase). A signal activity value relative to a sample without an addition of evaluation compound was obtained and defined as relative reporter activity.

Assay [4] has as its system HGF-Erk-SRE pathway. The experiment in a line: SRE luciferase reporter assay of cell-free translation products from ribosome display DNAs (Example 4). The assay is classed as cell-based. The following applies: HEK293E cells with SRE reporter; cell-free translation product at 25- to 625-fold dilution; HGF comparator; FIG. 16. How it is done:
For cell-free translation, to 20 ng of each DNA, 2.5 μL of Solution I, 0.25 μL of Solution II, 0.5 μL of Solution III, and 1.75 μL of water were added, and the mixture was incubated at 37° C. for 6 hours to carry out the translation reaction.
as §1, with “Reporter assays were carried out as follows.” for “The dimer of each aMD4dY-leucine zipper fusion was evaluated by luciferase assay.”
To the evaluation basal medium, 0 to 100 ng/mL HGF was added, or the above cell-free expression reaction solution was added at a 25- to 625-fold dilution with respect to the medium, and 100 μL of the evaluation basal medium was added to the cells. The cells were stimulated by culturing overnight at 37° C. in a 5% CO2 incubator.
Dual-Luciferase Reporter Assay System (Promega) was used for signal intensity detection. […] Activation of the HGF-Erk-SRE pathway was quantified by detecting Firefly luciferase luminescence from cell lysates with a plate reader. Subsequently, 50 μL of Glo & Stop reagent solution was added, and after 10 minutes, luminescence of Renilla luciferase, an internal standard, was detected to quantify the cell count. The signal activity of each sample was quantified as SRE activity=(luminescence intensity of Firefly luciferase)/(luminescence intensity of Renilla luciferase). […]

The target in assay [5] is T2, Recombinant Human HGFR/c-MET Fc Chimera Protein (R&D systems, 8614-MT-100) (human, UniProt P08581 25-932).
T2 construct: Bought reagent; also called c-Met immobilized on magnetic beads; Fc part of the bought chimera not given
The experiment in a line: ribosome display selection on c-MET Fc chimera on magnetic beads, from a 1:50:50 DNA mix; DNA length analysis of the recovered cDNA.

Consider eleven molecules from patent publication US20240026343A1, “METHOD FOR SCREENING DIMERIZED CYCLIC PEPTIDE” (AJINOMOTO CO., INC., priority 2021, published 2024).

Where a chain is given by its changes, count along the chain named. Positions of bridges follow the written chain, without caps; N, C: chain ends. No end group written: not given here.

Chain of Met (P08581 25-1390): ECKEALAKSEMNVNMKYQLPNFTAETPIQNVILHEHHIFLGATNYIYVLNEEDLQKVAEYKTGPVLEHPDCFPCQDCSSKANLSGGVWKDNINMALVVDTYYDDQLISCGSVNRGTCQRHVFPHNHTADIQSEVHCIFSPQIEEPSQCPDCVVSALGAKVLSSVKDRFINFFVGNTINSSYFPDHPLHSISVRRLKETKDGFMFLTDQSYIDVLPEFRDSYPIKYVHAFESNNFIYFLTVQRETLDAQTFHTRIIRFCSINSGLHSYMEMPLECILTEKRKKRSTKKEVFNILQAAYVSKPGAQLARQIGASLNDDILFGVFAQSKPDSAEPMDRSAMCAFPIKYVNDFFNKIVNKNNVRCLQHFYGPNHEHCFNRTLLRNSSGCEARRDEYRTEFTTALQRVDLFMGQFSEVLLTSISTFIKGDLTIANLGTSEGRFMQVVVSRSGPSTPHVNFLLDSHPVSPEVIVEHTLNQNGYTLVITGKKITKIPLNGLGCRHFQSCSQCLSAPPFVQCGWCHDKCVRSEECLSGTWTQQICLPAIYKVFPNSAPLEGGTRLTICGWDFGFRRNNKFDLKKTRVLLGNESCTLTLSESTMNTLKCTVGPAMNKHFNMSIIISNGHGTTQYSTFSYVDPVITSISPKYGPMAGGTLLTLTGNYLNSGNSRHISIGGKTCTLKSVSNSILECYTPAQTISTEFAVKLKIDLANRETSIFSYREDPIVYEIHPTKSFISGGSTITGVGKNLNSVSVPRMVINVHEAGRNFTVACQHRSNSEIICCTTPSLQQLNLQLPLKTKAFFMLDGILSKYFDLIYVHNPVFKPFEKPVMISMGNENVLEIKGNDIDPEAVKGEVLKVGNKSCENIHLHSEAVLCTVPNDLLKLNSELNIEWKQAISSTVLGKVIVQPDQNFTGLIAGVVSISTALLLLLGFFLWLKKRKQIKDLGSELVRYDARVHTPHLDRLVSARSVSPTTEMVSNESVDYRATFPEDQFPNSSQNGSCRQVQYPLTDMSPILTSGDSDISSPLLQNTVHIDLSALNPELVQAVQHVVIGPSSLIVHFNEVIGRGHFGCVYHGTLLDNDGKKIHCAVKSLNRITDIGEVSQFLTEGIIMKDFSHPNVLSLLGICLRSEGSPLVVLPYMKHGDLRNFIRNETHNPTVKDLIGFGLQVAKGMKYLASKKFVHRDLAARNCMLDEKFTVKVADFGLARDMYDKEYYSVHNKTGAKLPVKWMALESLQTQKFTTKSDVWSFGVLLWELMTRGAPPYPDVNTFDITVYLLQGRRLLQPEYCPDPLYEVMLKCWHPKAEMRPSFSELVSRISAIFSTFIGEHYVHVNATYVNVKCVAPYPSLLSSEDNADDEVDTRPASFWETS
T2 sequence (P08581 25-932, change not shown): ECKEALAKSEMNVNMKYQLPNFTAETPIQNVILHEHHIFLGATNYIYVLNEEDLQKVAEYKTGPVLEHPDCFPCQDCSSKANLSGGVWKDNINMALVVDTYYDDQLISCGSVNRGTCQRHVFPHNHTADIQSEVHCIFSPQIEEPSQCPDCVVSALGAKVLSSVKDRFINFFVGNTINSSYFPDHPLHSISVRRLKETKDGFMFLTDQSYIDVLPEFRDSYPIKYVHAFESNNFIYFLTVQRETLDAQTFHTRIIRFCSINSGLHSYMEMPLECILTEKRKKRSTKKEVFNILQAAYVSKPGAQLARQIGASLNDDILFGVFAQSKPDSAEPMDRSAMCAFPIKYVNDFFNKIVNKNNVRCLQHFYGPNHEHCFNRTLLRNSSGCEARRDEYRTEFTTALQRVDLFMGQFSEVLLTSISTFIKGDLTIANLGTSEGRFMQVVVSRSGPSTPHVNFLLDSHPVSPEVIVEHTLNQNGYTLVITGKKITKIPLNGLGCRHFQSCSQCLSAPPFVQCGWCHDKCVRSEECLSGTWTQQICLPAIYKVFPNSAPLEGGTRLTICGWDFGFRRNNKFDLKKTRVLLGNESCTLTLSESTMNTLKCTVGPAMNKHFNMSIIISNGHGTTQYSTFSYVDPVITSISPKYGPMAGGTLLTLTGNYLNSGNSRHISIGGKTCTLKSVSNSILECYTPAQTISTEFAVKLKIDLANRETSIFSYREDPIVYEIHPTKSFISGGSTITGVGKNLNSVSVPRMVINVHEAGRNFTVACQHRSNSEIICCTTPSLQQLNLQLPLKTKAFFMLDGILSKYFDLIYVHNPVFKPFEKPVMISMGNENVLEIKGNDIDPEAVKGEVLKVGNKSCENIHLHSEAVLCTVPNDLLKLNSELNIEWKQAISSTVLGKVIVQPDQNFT

As to “CRQFNRRTHEVWNLDC (disulfide 1-16) [aMD4dY]”, the “HGF-like activity (Met agonist) when dimerized” value in assay [1] is “exhibits an HGF-like activity”.

B1: EMP-Jun-cys-N11-SecM-GS3 (designed binder)
chain: MAETGGLYACHMGPMTWVCQPLRGAAPAAPAPAAGGRIARLEEKVKTLKAQNSELASTANMLREQVAQLKQKVMNGCGGKDHLIHNHHKHEHAHAEHLFSTPVWISQAQGIRAGGSGSGS
modifications: cyclic peptide part closed by a disulfide bond between its two Cys
notes: In the PathHunter assay it was a free cell-free translation product
B1: the binding result in assay [2] is given as “binds”.

B2: cys-Jun-PA8-aMD4dY: aMD4dY-leucine zipper fusion, SEQ ID NO: 50 (protein)
chain: MGGCGGRIARLEEKVKTLKAQNSELASTANMLREQVAQLKQKVMNAAPAAPAPACRQFNRRTHEVWNLDC
modifications: disulfide 55-70
Consider B2, for which the “relative reporter activity (SRE activity)” value (shortened to “relative reporter activity”) in assay [3] is on record as “found to have signal activation ability”.

B3: aMD4dY-PA8-cys-CEBPα: aMD4dY-CEBPα leucine zipper fusion, SEQ ID NO: 49 (protein)
chain: MAETCRQFNRRTHEVWNLDCGAAPAAPAPAAGCGGRNVETQQKVLELTSDNDRLRKRVEQLSRELDTLRGIFRQ
modifications: aMD4dY-PA8-cys-CEBP; DISULFID 5..20 Disulfide bridge between Cys-5 and Cys-20
On to B3, for which the “relative reporter activity” value in assay [3] is listed as “found to have signal activation ability”.

B4: EMP′-Jun-cys-N11-SecM-GS3: erythropoietin receptor binding cyclic peptide (EMP′)-leucine zipper fusion, SEQ ID NO: 73 (protein)
chain: MAETCHMGPMTWVCGAAPAAPAPAAGGRIARLEEKVKTLKAQNSELASTANMLREQVAQLKQKVMNGCGGKDHLIHNHHKHEHAHAEHLFSTPVWISQAQGIRAGGSGSGS
modifications: cyclic peptide disulfide; EMP'-Jun-cys-N11-SecM-GS3; DISULFID 5..14 Disulfide bridge between Cys-5 and Cys-14
As for B4, the “relative SRE reporter activity (relative receptor activity)” value in assay [4] was “only aMD4dY-Jun-cys-N11-SecM-GS3 showed activity”.

B5: TPO-Jun-cys-N11-SecM-GS3: thrombopoietin receptor binding cyclic peptide-leucine zipper fusion, SEQ ID NO: 72 (protein)
chain: MAETCADGPTLREWISFCGAAPAAPAPAAGGRIARLEEKVKTLKAQNSELASTANMLREQVAQLKQKVMNGCGGKDHLIHNHHKHEHAHAEHLFSTPVWISQAQGIRAGGSGSGS
modifications: cyclic peptide disulfide; TPO-Jun-cys-N11-SecM-GS3; DISULFID 5..18 Disulfide bridge between Cys-5 and Cys-18
B5: the “relative SRE reporter activity (relative receptor activity)” value in assay [4] was “only aMD4dY-Jun-cys-N11-SecM-GS3 showed activity”.

B6: aMD4dY-Jun-cys-N11-SecM-GS3 (designed binder)
chain: MAETCRQFNRRTHEVWNLDCGAAPAAPAPAAGGRIARLEEKVKTLKAQNSELASTANMLREQVAQLKQKVMNGCGGKDHLIHNHHKHEHAHAEHLFSTPVWISQAQGIRAGGSGSGS
modifications: cyclic peptide part closed by a disulfide bond between its two Cys
notes: In the reporter assays it was a free cell-free translation product
As for B6, the binding result in assay [5] was “binds”.

B7: aMD4dY-PA8-Jun: aMD4dY-leucine zipper fusion without cysteine residue, SEQ ID NO: 46 (protein)
chain: MAETCRQFNRRTHEVWNLDCGAAPAAPAPAAGGGRIARLEEKVKTLKAQNSELASTANMLREQVAQLKQKVMN
modifications: aMD4dY-PA8-Jun; DISULFID 5..20 Disulfide bridge between Cys-5 and Cys-20
On to B7, for which, in assay [3], the “relative reporter activity” value was “did not show activity”.

B8: Jun-cys-PA8-aMD4dY: aMD4dY-leucine zipper fusion, SEQ ID NO: 51 (protein)
chain: MGRIARLEEKVKTLKAQNSELASTANMLREQVAQLKQKVMNGGCGGAAPAAPAPACRQFNRRTHEVWNLDC
modifications: Jun-cys-PA8-aMD4dY; DISULFID 56..71 Disulfide bridge between Cys-56 and Cys-71
As to B8, in assay [3], the “relative reporter activity” value is “found to have signal activation ability”.

B9: aMD4dY-PA8-cys-Jun: aMD4dY-leucine zipper fusion polypeptide, SEQ ID NO: 45, cell-free expressed, forms disulfide dimer (protein)
chain: MAETCRQFNRRTHEVWNLDCGAAPAAPAPAAGCGGRIARLEEKVKTLKAQNSELASTANMLREQVAQLKQKVMN
modifications: disulfide dimer; aMD4dY-PA8-cys-Jun; DISULFID 5..20 Disulfide bridge between Cys-5 and Cys-20
For the molecule B9, the “relative reporter activity” value in assay [3] is listed as “showed activity comparable to HGF”.

B10: aMD4dY-PA8-cys-JunΔhep: aMD4dY fusion with c-Jun zipper having heparin binding ability removed, SEQ ID NO: 47 (protein)
chain: B9 chain with R36Q, R39Q, K45Q, K48Q
modifications: aMD4dY-PA8-cys-Junhep; DISULFID 5..20 Disulfide bridge between Cys-5 and Cys-20
Take B10: the “relative reporter activity” value in assay [3] is “activity was also exhibited”.
